Patent US20210070875A1 (SHANGHAI PHARMAEXPLORER, published 2021)

T1: human C5aR (human, UniProt P21730 1-350)
T1 chain: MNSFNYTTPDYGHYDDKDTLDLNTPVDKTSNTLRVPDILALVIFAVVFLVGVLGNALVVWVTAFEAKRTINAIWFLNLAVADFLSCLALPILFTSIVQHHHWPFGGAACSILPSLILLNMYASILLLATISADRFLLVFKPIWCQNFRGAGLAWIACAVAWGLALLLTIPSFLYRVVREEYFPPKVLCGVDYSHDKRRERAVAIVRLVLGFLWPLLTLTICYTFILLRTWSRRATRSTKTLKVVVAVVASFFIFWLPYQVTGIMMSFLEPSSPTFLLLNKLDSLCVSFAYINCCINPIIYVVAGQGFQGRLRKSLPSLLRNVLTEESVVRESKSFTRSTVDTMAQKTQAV


Target: T1, human C5aR
Assay: cell-based or functional assay
Note: test concentration or dose not given here.

Row | Binder | C5a-induced human neutrophil migration, Celltiter-Glo fluorescence intensity value, Parallel sample 1 | C5a-induced human neutrophil migration, Celltiter-Glo fluorescence intensity value, Parallel sample 2 | C5a-induced human neutrophil migration, Celltiter-Glo fluorescence intensity value, Parallel sample 3 | C5a-induced human neutrophil migration, Celltiter-Glo fluorescence intensity value, Parallel sample 4
1 | 46H2A11C7 (antibody, V domains shown) VH: QVQLKQSGAELVKPGASVKISCRASGYTFTDYFINWVKQRPGQGLEWIGKIGPGSGNIYQNEKFKDKATLTTDTSSSTAYMQLSSLTSEDSAVYFCARWGIQRGWGQGTTLTVSS VL: not shown | 1460 fluorescence intensity | 1510 fluorescence intensity | 1930 fluorescence intensity | 2040 fluorescence intensity
2 | 8B5D1A9 (antibody, V domains shown) VH: QVQLKQSGAELVKPGASVKISCKTSGYIFTDYYINWMKQRPGQGLEWIGKIGPGSGTTFYNEKFKGKATLTADKSSTTLYMQLSSLTAEDSAVYFCTRRGYYSSSYFYWGQGTTLTVSS VL: DIVMTQSPSSLSVSAGEKVIMSCKSSQSLLNSERQKNYLAWYQQKPGQSPKLLIYGASTRESGVPDRFTGSGSGTDFTLTISSVQAEDLAVYYCLNDHSYPLTFGAGTKLELK | 655 fluorescence intensity | 713 fluorescence intensity | 706 fluorescence intensity | 750 fluorescence intensity
3 | 42B5G7D1 (antibody, V domains shown) VH: QVQLQQSGPELVKPGASVKISCKASGYVFSNSWMNWVKQRPGKGLEWIGRIDPGDGDTKYNGKFKGKATLTADKSSSTAYMQLSSLTSEDSAVYFCVRFYYGSNYVGYYFDYWGQGTTLTVSS VL: DVLMTQTPLSLPVSLGDQASISCRSSQSIVQSNGNTYLEWYLQKPGQSPKLLIYKVSNRFSGVPDRFSGSGSGTDFTLKISRVEAEDLGVYYCFQGSLVPPTFGGGTKLEIK | 1200 fluorescence intensity | 1480 fluorescence intensity | 298 fluorescence intensity | 335 fluorescence intensity
4 | 5F8E2C11 (antibody, V domains shown) VH: QVQLRQSGPGLVQPSQSLSITCTVSGFSLTSYGVHWVRQSPGKGLEWLGVIWSGGSTDYNAAFISRLSISKDYSKSQIFLTMNSLQTDDTAIYYCARNSRLGNCFDYWGQGTTLTVSS VL: DIVMSQSPSSLAVSAGEKVTMSCKSSQSLLNSRTRKNYLAWYQQKPGQSPKLLIYWASTRESGVPDRFTGSGSGTDFTLTISSVQAEDLAVYYCKQSYNLPAFGGGTKLEIK | 575 fluorescence intensity | 429 fluorescence intensity | 400 fluorescence intensity | 313 fluorescence intensity
5 | 9D5A12G7 (antibody, V domains shown) VH: QVQLKQSGPGLVQPSQSLSITCTVSGFSLTSYGVHWVRQSPGKGLEWLGVIWSGGSTDYNAAFISRLSISKDNSKSQVFFKMNSLQADDTAIYYCARNGLLGNAMDYWGQGTSVTVSS VL: DIVMSQSPSSLAVSAGEKVTMSCKSSQSLLSSRTRKNYLAWYQQKPGQSPKLLIYWASTRESGVPDRFTGSGSGTDFTLTISSVQTEDLAVYYCKQSYNLLTFGAGTTLELK | 175 fluorescence intensity | 211 fluorescence intensity | 575 fluorescence intensity | 611 fluorescence intensity
6 | 43E8F5B6 (antibody, V domains shown) VH: EVQLQQSGPELVKPGASVKISCKASGYTFTDYYMSWMKQSHGKSLEWIGDINPNNGDNIYNQKFKGKATLTVDRSSSTAYMDLRSLTSEDSAVYYCARWYYYVSSFSYWYFDVWGTGTTVTVSS VL: EIVLTQSPTTMAASPGEKITITCSATSSINSNYLHWYQQKPGFSPKLLIYRTSNLASGVPARFSGSGSGTSYSLTIGTMEAEDVATYYCQQGRTIPRTFGSGTKLEIK | 844 fluorescence intensity | 808 fluorescence intensity | 706 fluorescence intensity | 757 fluorescence intensity
7 | 2A12B2B2 (antibody, V domains shown) VH: QVQLQQPGADLVKPGASVKMSCKASGYILTTYWITWVKQRPGQGLEWIGDIHPGSGSTKYNEKFKSKATLTVDTSSSTAYMQLTRLSSEDSAVYYCARRDYWGQGTTLTVSS VL: DIQMTQTTSSLSASLGDKVTISCRASQDISNYLSWYQQKPDGTVKLLIYWISRLHSGVPSRFSGSGSGTDFSLTISNLEQEDIATYFCQQGNSLPPTFGGGTKLEVK | 670 fluorescence intensity | 597 fluorescence intensity | 233 fluorescence intensity | 204 fluorescence intensity
